What was measured:
Ub(G76V)-GFP, U2OS cells = test: QIBC of Ub(G76V)-GFP after siRNA; format: cell-based, human; settings: siRNA 20 nM, QIBC >10,000 cells
Description: (§1) U2OS (catalog no. HTB-96) cells were obtained from ATCC. HEK293-EBNA1-6E cells were a kind gift from Yves Durocher (National Research Council Canada, Montreal, Canada). All mammalian cell lines were cultured under standard conditions at 37 °C and 5% CO2 in DMEM (Thermo) supplemented with 10% FBS (v/v) and penicillin-streptomycin (Thermo). Recombination cloning-compatible U2OS cells were generated using the Flp-In T-Rex Core Kit (Thermo) according to the manufacturer’s instructions and maintained under selection using Blasticidin (Invivogen) and Zeocin (Thermo). To generate cell lines stably expressing GFP-VCF1, U2OS Flp-In T-Rex cells (Thermo) were co-transfected with GFP-VCF1 constructs and pOG44 (Thermo) plasmids, followed by selection with Hygromycin (Invitrogen). Single clones were carefully screened for uniform expression of ectopic GFP-VCF1 at low levels and maintained under selection with Blasticidin and Hygromycin. To induce GFP-VCF1 expression, cells were treated with Doxycycline (DOX) (0.5 µg/ml) for 16 h. U2OS cell lines stably expressing Ub(G76V)-GFP or Ub(G76V)-GFP-20AA were described previously. A U2OS cell line stably expressing Ub(G76V)-GFP-NES was generated under G418 (Invivogen) selection. […]
(§2) Mammalian cells grown on coverslips were fixed in formalin buffer (VWR) for 15 min at room temperature (RT). […] Quantitative image-based cytometry (QIBC) was performed as described. […]

[1] = test system: NPL4, U2OS/Ub(G76V)-GFP cells; test: Immunoblot of siRNA knockdown efficiency; format: cell-based, human
Description: All siRNAs (Sigma) were used at 20 nM and transfected with Lipofectamine RNAiMAX reagent (Thermo) according to manufacturer’s instructions. The following siRNA oligonucleotides were used: Non-targeting control (CTRL): 5′-[…]-3′; VCF1(#1): 5’-[…]-3’; VCF1(#2): 5’-[…]-3’; p47: 5’-[…]-3’; NPL4: 5’-[…]-3’; FAF1: 5′-[…]-3′; p97: Dharmacon SmartPool (D-008727).
Immunoblotting was performed as previously described. Immunoprecipitation (IP) of HA-tagged proteins was performed using Anti-HA Affinity matrix (Roche) under denaturing conditions, unless otherwise stated. GFP-trap and […] Fab-trap agarose (Chromotek) were used according to manufacturer’s instructions. Cell lysis was performed using RIPA buffer (140 mM NaCl; 10 mM Tris-HCl, pH 8.0; 0.1% sodium deoxycholate; 1% Triton X-100; 0.1% SDS; 1 mM EDTA; 0.5 mM EGTA) or EBC buffer (50 mM Tris, pH 7.5; 150 mM NaCl; 1 mM EDTA; 0.5% NP-40, 1 mM DTT). IPs were washed in non-denaturing buffer (50 mM Tris-HCl, pH 7.5; 150 mM NaCl; 0.5 mM EDTA). Cell lysis and IP under partially denaturing conditions were performed using denaturing buffer (20 mM Tris-HCl, pH 7.5; 50 mM NaCl; 0.5% sodium deoxycholate; 0.5% NP-40; 0.5% SDS; 1 mM EDTA). […]

[2] = test system: Ub(G76V)-GFP-NES, U2OS cells; test: Imaging of Ub(G76V)-GFP-NES after siRNA or p97 inhibitor; format: cell-based, human; settings: siRNA 20 nM or p97i (NMS-873) 2 h
Description: as §1, §2

p97 (His6-p97 WT) = biological target: T1, p97 (His6-p97 WT) (Homo sapiens, UniProt P55072); test: SPR: binding to immobilized His6-p97 WT; settings: N167A mutants; in vitro binding experiments and SPR, up to 300 nM (peptides) or 100 nM (full-length)
T1 construct: Coomassie Blue staining of full-length and truncated His6-p97 proteins purified from E; made in house; host or cells: E. coli BL21(DE3)
Description: Surface Plasmon Resonance (SPR)
All SPR experiments were performed at 25 °C on a Biacore T200 instrument equipped with CM5 or CM7 sensor chips (Cytiva, Uppsala, Sweden). SPR running buffers and amine-coupling reagents (N-ethyl-N’-(3-dimethlyaminoproply)carbodiimide (EDC), N-hydroxysuccinimide (NHS), and ethanolamine HCl) were purchased from Cytiva. 1x PBS-P (11.9 mM NaH2PO4-Na2HPO4, pH 7.4; 137 mM NaCl; 2.7 mM KCl; 0.005% surfactant P20) supplemented with 0.5 mM TCEP was used as running buffer for the immobilization and the binding experiments with Strep-HA-VCF1 full-length proteins. For the VCF1 C-terminal peptide binding studies, 2% DMSO was additionally included in the running buffer. Eight solvent correction samples ranging from 1.5% DMSO to 2.8% DMSO prepared in either PBS-P, 0.5 mM TCEP or Tris-based buffer were used to correct buffer/DMSO mismatches. The CM5 chip was used for the kinetic analysis of the interactions between p97 proteins and VCF1 full-length proteins or VCF1 C-terminal peptides. p97 was immobilized at different densities on the carboxymethyl dextran sensor chip surface by amine-coupling chemistry. For kinetic analysis, p97 was immobilized at low density (~400 RU) on flow cells 2 (Fc2) and 3 (Fc3), respectively, of a CM5 chip. […] The dissociation rate of the p97-VCF1 complexes was monitored for 400 s. […] Binding experiments were measured in triplicates. […]

p97 = test: GFP IP of GFP-VCF1 alanine mutants from U2OS cells; format: binding, human; settings: full-length GFP-VCF1, U2OS
Description: (§3) Immunoblotting was performed as previously described. Immunoprecipitation (IP) of HA-tagged proteins was performed using Anti-HA Affinity matrix (Roche) under denaturing conditions, unless otherwise stated. GFP-trap and […] Fab-trap agarose (Chromotek) were used according to manufacturer’s instructions. Cell lysis was performed using RIPA buffer (140 mM NaCl; 10 mM Tris-HCl, pH 8.0; 0.1% sodium deoxycholate; 1% Triton X-100; 0.1% SDS; 1 mM EDTA; 0.5 mM EGTA) or EBC buffer (50 mM Tris, pH 7.5; 150 mM NaCl; 1 mM EDTA; 0.5% NP-40, 1 mM DTT). IPs were washed in non-denaturing buffer (50 mM Tris-HCl, pH 7.5; 150 mM NaCl; 0.5 mM EDTA). Cell lysis and IP under partially denaturing conditions were performed using denaturing buffer (20 mM Tris-HCl, pH 7.5; 50 mM NaCl; 0.5% sodium deoxycholate; 0.5% NP-40; 0.5% SDS; 1 mM EDTA). All lysis and wash buffers were supplemented with 1 mM fresh PMSF Protease Inhibitor (Thermo), complete EDTA-free protease inhibitor Cocktail Tablets (Roche), 1.25 mM N-ethylmaleimide (Sigma) and 50 µM PR-619 (Calbiochem).

[3] = test system: GFP-VCF1 WT / N167A interactome, U2OS cells; test: GFP IP mass spectrometry, comparison of VCF1 WT and N167A interactomes (WT/N167A); format: binding, human; settings: stably expressed GFP-VCF1, MS interactome
Description: U2OS (catalog no. HTB-96) cells were obtained from ATCC. HEK293-EBNA1-6E cells were a kind gift from Yves Durocher (National Research Council Canada, Montreal, Canada). All mammalian cell lines were cultured under standard conditions at 37 °C and 5% CO2 in DMEM (Thermo) supplemented with 10% FBS (v/v) and penicillin-streptomycin (Thermo). Recombination cloning-compatible U2OS cells were generated using the Flp-In T-Rex Core Kit (Thermo) according to the manufacturer’s instructions and maintained under selection using Blasticidin (Invivogen) and Zeocin (Thermo). To generate cell lines stably expressing GFP-VCF1, U2OS Flp-In T-Rex cells (Thermo) were co-transfected with GFP-VCF1 constructs and pOG44 (Thermo) plasmids, followed by selection with Hygromycin (Invitrogen). Single clones were carefully screened for uniform expression of ectopic GFP-VCF1 at low levels and maintained under selection with Blasticidin and Hygromycin. To induce GFP-VCF1 expression, cells were treated with Doxycycline (DOX) (0.5 µg/ml) for 16 h. U2OS cell lines stably expressing Ub(G76V)-GFP or Ub(G76V)-GFP-20AA were described previously. A U2OS cell line stably expressing Ub(G76V)-GFP-NES was generated under G418 (Invivogen) selection. Clones with low baseline GFP expression were visually screened for low basal GFP expression. All cell lines used in this study were regularly tested negative for mycoplasma infection and were not authenticated.
as §3
GFP-Trap agarose (Chromotek) pulldowns were subjected to partial on-bead digestion for peptide elution, by addition of 100 µl of elution buffer (50 mM Tris, pH 7.5; 2 M urea; 2 mM DTT; 20 µg/ml trypsin) and incubation at 37 °C for 30 min. To carry out alkylation, 25 mM CAA was added to the samples, which were then left to digest overnight at room temperature. Digestion was halted by introducing 1% TFA. Purification and desalting of peptides were done using SDB-RPS StageTips. This process required preparing two layers of SDB-RPS with 100 µl of wash buffer (0.2% TFA in H2O), onto which the peptides were loaded. After centrifugation for 5 min at 500 × g, peptides were washed using 150 µl wash buffer, eluted with 50 µl elution buffer (80% ACN; 1% ammonia) and vacuum-dried.
Liquid chromatography-mass spectrometry (LC-MS) analysis was conducted using an EASY-nLC-1200 system (Thermo Fisher Scientific), coupled with a timsTOF Pro spectrometer and a nano-electrospray ion source (Bruker Daltonik). […]

p97 ATPase = test: ATPase assay; format: biochemical, human; settings: p97 25 nM, ATP 375 μM
Description: For ATPase assays, 1 ml of 5x assay buffer (250 mM Tris, pH 7.4; 100 mM MgCl2; 5 mM EDTA) was mixed with 3 ml water, 5 μl 0.5 M TCEP and 5 μl 10% Triton X. To 40 ul of this assay buffer, recombinant proteins were added, mixed and incubated for 30 min. Final protein concentrations were as follows: p97 (25 nM), VCF1 (range of 0, 0.025, 1, 10 and 25 nM). The reactions were started by adding 10 μl ATP (final concentration of 375 μM) to the 40 μl reactions in a 96 well plate. After 35 min at room temperature, reactions were stopped by adding 50 μl BIOMOL Green reagent (Enzo Life Sciences). Absorbance at 635 nm was measured after 4 min and the relative ATPase activity calculated. Reactions were performed in duplicates and repeated three times.

[4] = test system: p97-UFD1-NPL4 binding to K48-Ub2-7; test: FLAG IP: p97-UFD1-NPL4 binding to K48-linked ubiquitin chains, purified proteins; format: biochemical, human; settings: high protein amounts, mild buffer
Description: All in vitro binding experiments were performed in EBC or RIPA buffer as indicated. Recombinant Biotin-tagged K48-linked poly-ubiquitin chains (2−7) and K48-linked poly-ubiquitin chains (2−16) were purchased from R&D Systems and Enzo Life Science, respectively. Recombinant proteins were incubated with Strep-Tactin Sepharose (IBA), Glutathione agarose (Gold Biotechnology) or […] Fab-trap agarose (ChromoTek) overnight on an end-over-end rotator at 4 °C, washed six times with EBC or RIPA buffer, and resuspended in 2×Laemmli sample buffer. For p97, VCF1 or p47 pulldowns, antibodies (0.5 µg/sample) were coupled to agarose beads, incubated with recombinant proteins or cell lysates and washed with the indicated buffer. To assess p97-UFD1-NPL4 binding to ubiquitylated proteins in total cell extracts, U2OS cells were lysed in EBC buffer supplemented with protease and phosphatase inhibitors, sonicated and incubated on ice for 10 min. Lysates were cleared by centrifugation for 10 min at 16,100 × g. Cell lysate (40 µg) was added to recombinant proteins in EBC buffer, incubated overnight on the rotator with […] Fab-trap agarose (ChromoTek), and beads were washed six times.

T1 sequence (P55072 whole entry, the tested form may be a part): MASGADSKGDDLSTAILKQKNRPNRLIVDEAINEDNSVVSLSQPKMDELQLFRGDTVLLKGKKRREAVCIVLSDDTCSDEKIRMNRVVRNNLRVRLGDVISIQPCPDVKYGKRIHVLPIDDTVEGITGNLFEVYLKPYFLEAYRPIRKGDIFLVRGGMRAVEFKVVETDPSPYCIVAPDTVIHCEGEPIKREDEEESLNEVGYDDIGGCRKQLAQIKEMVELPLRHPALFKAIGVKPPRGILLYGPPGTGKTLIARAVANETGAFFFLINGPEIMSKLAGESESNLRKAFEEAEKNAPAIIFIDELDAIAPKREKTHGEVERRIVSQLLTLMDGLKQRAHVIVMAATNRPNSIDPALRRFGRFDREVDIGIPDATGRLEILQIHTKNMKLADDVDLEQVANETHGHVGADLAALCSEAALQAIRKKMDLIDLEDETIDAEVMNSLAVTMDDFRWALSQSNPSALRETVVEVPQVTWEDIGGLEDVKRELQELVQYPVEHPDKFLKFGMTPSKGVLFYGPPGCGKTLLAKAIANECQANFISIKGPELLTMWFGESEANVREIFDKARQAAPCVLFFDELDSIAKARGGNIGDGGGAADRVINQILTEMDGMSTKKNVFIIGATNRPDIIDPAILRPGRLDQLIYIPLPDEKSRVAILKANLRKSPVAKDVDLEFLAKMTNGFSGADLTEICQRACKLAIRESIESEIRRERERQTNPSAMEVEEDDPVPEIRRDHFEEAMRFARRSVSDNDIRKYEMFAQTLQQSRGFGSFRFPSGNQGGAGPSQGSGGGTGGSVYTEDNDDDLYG

## 5’-CACGCCUAAUCCUGUUGACAA-3’ [NPL4 siRNA]
Ub(G76V)-GFP, U2OS cells
  effect on Ub(G76V)-GFP level: increased Ub(G76V)-GFP abundance as expected
[1]
  reduction in NPL4 abundance: ~ 50%

## Cc1cc(OCc2nnc(SC3CCCC3)n2-c2cccnc2)ccc1-c1ccc(S(C)(=O)=O)cc1 [NMS-873]
[2]
  effect on Ub(G76V)-GFP-NES: strong Ub(G76V)-GFP-NES accumulation

## VCF1 N167A: full-length VCF1 with N167A point mutation in VRM
p97 (His6-p97 WT)
  binding to p97 WT (in words): abrogated binding to p97
p97
  effect of alanine scan on p97 binding: essential for VCF1 binding to p97
[3]
  p97 binding of N167A vs WT: strong loss of p97 binding
p97 ATPase; 0.025 nM, replicate 1
  relative ATPase activity: 1.034
p97 ATPase; 0.025 nM, replicate 2
  relative ATPase activity: 0.974
p97 ATPase; 0.025 nM, replicate 3
  relative ATPase activity: 1.059
p97 ATPase; 1 nM, replicate 1
  relative ATPase activity: 1.009
p97 ATPase; 1 nM, replicate 2
  relative ATPase activity: 1.013
p97 ATPase; 1 nM, replicate 3
  relative ATPase activity: 1.024
p97 ATPase; 10 nM, replicate 1
  relative ATPase activity: 1.046
p97 ATPase; 10 nM, replicate 2
  relative ATPase activity: 0.967
p97 ATPase; 10 nM, replicate 3
  relative ATPase activity: 0.99
[4]
  residual binding of N167A mutant to p97: very weak residual binding to p97
